T1: human BTLA extracellular domain with C-terminal 10xHis tag (human, UniProt Q7Z6A9 31-157)
T1 construct: also called HuBTLA-His; His-tag-huBTLA
T1 sequence: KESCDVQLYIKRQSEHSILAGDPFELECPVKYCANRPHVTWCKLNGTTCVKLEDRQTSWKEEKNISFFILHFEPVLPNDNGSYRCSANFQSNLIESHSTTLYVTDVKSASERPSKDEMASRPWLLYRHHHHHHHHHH

T2: extracellular domain of human BTLA with FAS, expressed on Jurkat cells (human, UniProt Q7Z6A9 31-157; P25445 174-335, limits assumed)
T2 sequence (looked up): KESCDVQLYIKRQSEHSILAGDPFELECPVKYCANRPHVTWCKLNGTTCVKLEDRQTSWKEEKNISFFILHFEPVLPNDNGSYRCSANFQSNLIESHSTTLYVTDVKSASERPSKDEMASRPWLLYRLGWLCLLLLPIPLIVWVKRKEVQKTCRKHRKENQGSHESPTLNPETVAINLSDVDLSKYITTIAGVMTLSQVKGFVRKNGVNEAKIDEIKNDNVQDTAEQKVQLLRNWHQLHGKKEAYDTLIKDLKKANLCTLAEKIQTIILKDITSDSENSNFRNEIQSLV


Assays:
[1] = target: T1, human BTLA extracellular domain with …; experiment: BLI (Octet RED96), antibody on AHC biosensor, His-tag-huBTLA in solution
Method: (§1) The following kinetic assay was performed using anti-human IgG Fc capture (AHC) biosensors (ForteBio) in kinetics buffer (PBS, 0.1% Tween-20 and 1% bovine serum albumin): (a) antibody (2 μg/mL) for 300 sec, (b) baseline for 120 sec, (c) association with purified His-tag-huBTLA (2.5, 0.5 and 0 μg/mL) and His-tag-rhesus monkey BTLA (Sino Biologcal, cat #90250-C08H) (2.5, 0.5 and 0 μg/mL) for 420 sec and (d) dissociation for 1200 sec. Data fitting and analysis was performed with Octet data analysis software 8.0 (ForteBio) using a 1:1 binding model after Savitzky-Golay filtering.
(§2) Binding affinities (monovalent Kd) of humanized anti-BTLA antibodies were determined using Biolayer interferometry on the Octet RED96 instrument (ForteBio) as described above in Example 3, except for (c) association with His-tag-huBTLA ([…]) for 420 sec.

[2] = target: T3, human BTLA (Uniprot Q7Z6A9) expressed on cells (human, UniProt Q7Z6A9 31-289); experiment: flow cytometry on huBTLA-overexpressing Expi293 cells, MFI
T3 construct: whole, on cells; also called huBTLA-overexpressing Expi293 cells
Method: Expi293 cells stably overexpressing huBTLA were incubated with the chimeric anti-BTLA antibodies 83F2 or 86B7 in PBS containing 0.5% BSA, 1 mM EDTA, and 0.1% sodium azide (FACS buffer) for 30 minutes at 4° C. The cells were washed, and then incubated with 10 nM phycoerythrin (PE) conjugated anti-Human Fc Ab (BioLegend, cat #409304) for 20 minutes at 4° C. Cells were washed and then analyzed by flow cytometry with Attune (ThermoFisher Scientific). Data were analyzed with FlowJo software. Antibody binding is represented as median fluorescence intensity (MFI).
FACS based binding assays of humanized anti-BTLA antibodies were performed as described above in Example 3.

[3] = target: T1, human BTLA extracellular domain with …; experiment: BLI (Octet RED96), antibody on AHC biosensor, His-tag-huBTLA in solution; column head prints nM, but Koff/Kon shows the values are in M
Method: as §1, §2

[4] = target: T3, human BTLA (Uniprot Q7Z6A9) expressed …; experiment: flow cytometry blocking assay on huBTLA-overexpressing Expi293 cells, antibody titrated, soluble human HVEM-mouse IgG2a Fc detected
Method: Expi293 cells stably overexpressing huBTLA were incubated with chimeric anti-BTLA antibody 83F2 or 86B7 for 30 minutes at 4° C. The cells were washed, and then incubated with human HVEM-mouse IgG2a Fc recombinant protein (Acro Biosystems, cat #HVM-H5255) at […] concentration for 20 minutes at 4° C. The human HVEM bindings were detected by goat anti-mouse Alexa 488 secondary antibody (ThermoFisher, cat #A-11029). Cells were washed and acquired by flow cytometry with Attune. Data were analyzed with FlowJo software. BTLA binding is represented as MFI.
FACS based blocking assays of humanized anti-BTLA antibodies were performed as described above in Example 3.

[5] = target: T3, human BTLA (Uniprot Q7Z6A9) expressed …; experiment: cell-based or functional assay
[6] = target: T2, extracellular domain of human BTLA with …; experiment: cell-based or functional assay

Binder | koff [1] [s⁻¹] | kon [1] [M⁻¹ s⁻¹] | EC50 (read off the curve) [2] [pM] | Kd [3] [pM] | IC50 (read off the curve) [4] [pM] | EC50 of recovery of IL-2 production, Raji-HVEM/primary human T cell coculture [5] [pM] | EC50 of inhibition of huHVEM-Fc-induced apoptosis, Jurkat-huBTLA-FAS cells (ATP luminescence) [6] [pM]
humanized anti-BTLA antibody SB2003-4 (antibody, V domains shown) VH: QITLKESGPTLVKPTQTLTLTCTFSGFSLSTFGMGVSWIRQPPGKALEWLAHIYWDDDKRFNPSLKSRLTITKDTSKNQVVLTMTNMDPVDTATYYCARGNWDGETYFDYWGQGTLVTVSS VL: DVVMTQSPLSLPVTLGQPASISCKSTQSLLDSDGKTYLNWLQQRPGQSPRSLIYLVSKLDSGVPDRFSGSGSGTDFTLKISRVEAEDVGVYYCWQGTHFPWTFGQGTKVEIK | 9.19e-05 | 307000 | ~800 | 312 | ~400 | – | –
humanized anti-BTLA antibody SB2003-9 (antibody, V domains shown) VH: QITLKESGPTLVKPTQTLTLTCTFSGFSLSTFGMGVSWIRQPPGKALEWLAHIYWDDDKRFNPSLKSRLTITKDTSKNQVVLTMTNMDPVDTATYYCAHGNWDGETYFDYWGQGTLVTVSS VL: DVVMTQSPLSLPVTLGQPASISCKSTQSLLDSDGKTYLNWFQQRPGQSPRSLIYLVSKLDSGVPDRFSGSGSGTDFTLKISRVEAEDVGVYYCWQGTHFPWTFGQGTKVEIK | 6.5e-05 | 440000 | – | 148 | – | – | –
humanized anti-BTLA antibody SB2003-7 (antibody, V domains shown) VH: QVTLKESGPTLVKPTQTLTLTCTFSGFSLSTFGMGVSWIRQPPGKALEWLAHIYWDDDKRFNPSLKSRLTITKDTSKNQVVLTMTNMDPVDTATYYCARGNWDGETYFDYWGQGTLVTVSS VL: DVVMTQSPLSLPVTLGQPASISCKSTQSLLDSDGKTYLNWFQQRPGQSPRSLIYLVSKLDSGVPDRFSGSGSGTDFTLKISRVEAEDVGVYYCWQGTHFPWTFGQGTKVEIK | 5.76e-05 | 366000 | – | 154 | – | – | –
humanized anti-BTLA antibody SB2003-8 (antibody, V domains shown) VH: QVTLKESGPTLVKPTQTLTLTCTFSGFSLSTFGMGVSWIRQPPGKALEWLAHIYWDDDKRFNPSLKSRLTITKDTSKNQVVLTMTNMDPVDTATYYCARGNWDGETYFDYWGQGTLVTVSS VL: DVVMTQSPLSLPVTLGQPASISCKSTQSLLDSDGKTYLNWLQQRPGQSPRSLIYLVSKLDSGVPDRFSGSGSGTDFTLKISRVEAEDVGVYYCWQGTHFPWTFGQGTKVEIK | 8.05e-05 | 418000 | – | 198 | – | – | –
humanized anti-BTLA antibody SB2003-3 (antibody, V domains shown) VH: QITLKESGPTLVKPTQTLTLTCTFSGFSLSTFGMGVSWIRQPPGKALEWLAHIYWDDDKRFNPSLKSRLTITKDTSKNQVVLTMTNMDPVDTATYYCARGNWDGETYFDYWGQGTLVTVSS VL: DVVMTQSPLSLPVTLGQPASISCKSTQSLLDSDGKTYLNWFQQRPGQSPRSLIYLVSKLDSGVPDRFSGSGSGTDFTLKISRVEAEDVGVYYCWQGTHFPWTFGQGTKVEIK | 9.48e-05 | 291000 | ~800 | 308 | ~400 | – | –
humanized anti-BTLA antibody SB2003-10 (antibody, V domains shown) VH: QITLKESGPTLVKPTQTLTLTCTFSGFSLSTFGMGVSWIRQPPGKALEWLAHIYWDDDKRFNPSLKSRLTITKDTSKNQVVLTMTNMDPVDTATYYCAHGNWDGETYFDYWGQGTLVTVSS VL: DVVMTQSPLSLPVTLGQPASISCKSTQSLLDSDGKTYLNWLQQRPGQSPRSLIYLVSKLDSGVPDRFSGSGSGTDFTLKISRVEAEDVGVYYCWQGTHFPWTFGQGTKVEIK | 0.000179 | 356000 | – | 551 | – | – | –

The remaining lines, values ahead:

koff [1] [s⁻¹] | kon [1] [M⁻¹ s⁻¹] | EC50 (read off the curve) [2] [pM] | Kd [3] [pM] | IC50 (read off the curve) [4] [pM] | EC50 of recovery of IL-2 production, Raji-HVEM/primary human T cell coculture [5] [pM] | EC50 of inhibition of huHVEM-Fc-induced apoptosis, Jurkat-huBTLA-FAS cells (ATP luminescence) [6] [pM] | Binder
4.99e-05 | 384000 | ~800 | 128 | ~400 | 2300 | 117 | humanized anti-BTLA antibody SB2003-11 (antibody, V domains shown) VH: QVTLKESGPTLVKPTQTLTLTCTFSGFSLSTFGMGVSWIRQPPGKALEWLAHIYWDDDKRFNPSLKSRLTITKDTSKNQVVLTMTNMDPVDTATYYCAHGNWDGETYFDYWGQGTLVTVSS VL: DVVMTQSPLSLPVTLGQPASISCKSTQSLLDSDGKTYLNWFQQRPGQSPRSLIYLVSKLDSGVPDRFSGSGSGTDFTLKISRVEAEDVGVYYCWQGTHFPWTFGQGTKVEIK
0.000109 | 120000 | – | 797 | – | – | – | humanized anti-BTLA antibody SB2003-2 (antibody, V domains shown) VH: QITLKESGPTLVKPTQTLTLTCTFSGFSLSTFGMGVSWIRQPPGKALEWLAHIYWDDDKRFNPSLKSRLTITKDTSKNQVVLTMTNMDPVDTATYYCARGNWDGETYFDYWGQGTLVTVSS VL: DVVMTQSPLSLPVTLGQPASISCKSTQSLLDSDGKTYLNWLQQRPGQSPRRLIYLVSKLDSGVPDRFSGSGSGTDFTLKISRVEAEDVGVYYCWQGTHFPWTFGQGTKVEIK
8.06e-05 | 134000 | – | 604 | – | – | – | humanized anti-BTLA antibody SB2003-6 (antibody, V domains shown) VH: QVTLKESGPTLVKPTQTLTLTCTFSGFSLSTFGMGVSWIRQPPGKALEWLAHIYWDDDKRFNPSLKSRLTITKDTSKNQVVLTMTNMDPVDTATYYCARGNWDGETYFDYWGQGTLVTVSS VL: DVVMTQSPLSLPVTLGQPASISCKSTQSLLDSDGKTYLNWLQQRPGQSPRRLIYLVSKLDSGVPDRFSGSGSGTDFTLKISRVEAEDVGVYYCWQGTHFPWTFGQGTKVEIK
